From the supplement of paper PMC10126150
± gives the standard deviation of the averaged measurements.

tested on: ATP; experiment: switch fluorescence ratio, 500 uM ATP over buffer (Cy3 cluster intensity, sum of 5 cycles each) (fold (ratio)); higher = stronger signal-on switching upon ATP binding; sequences stand for … in TCGTCGGCAGCGTCAGATGTGTATAAGAGACAGTTTTTTTTTTTTTTTTTTTTTTTTT…TC; conditions: aptamer strand: ATP DNA aptamer (quencher-CACCTGGGGGAGTATTGCGGAGGAAGG + anchor), 100 nM annealed; ATP concentration: 500 uM
Method in brief: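 Cy3-labelled switching-strand clusters on a modified Illumina MiSeq flow-cell were annealed to 100 nM quencher-labelled ATP aptamer, imaged in selection buffer, then imaged after 15 min with 500 uM ATP at 22 °C. Five buffer/ATP cycles ran, with NaOH stripping and re-annealing between them. The fluorescence ratio is summed target-cycle over summed buffer-cycle Cy3 intensity per cluster, averaged per switch-domain sequence. Clusters outside 100-1000 RFU were excluded.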
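Note: ATP exposure 15 min at 22 °C before imaging.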

| Sequence | switch fluorescence ratio |
| --- | --- |
| GACGATACGT | 1.14 ± 0.038 |
| GACGATCCTG | 1.08 ± 0.043 |
| GACGATGACG | 0.987 ± 0.014 |
| GACGCACTAA | 2.76 ± 0.44 |
| GACGCAGGTG | 2.5 ± 0.24 |
| GACGCGCGTA | 1.01 ± 0.027 |
| GACGCTGTGC | 3.6 ± 0.41 |
| GACGGAGGGG | 1.01 ± 0.027 |
| GACGGATTTA | 0.988 ± 0.035 |
| GACGGCGCTG | 0.957 ± 0.049 |
| GACGGCTCAG | 1 ± 0.015 |
| GACGGGGAGA | 1.06 ± 0.038 |
| GACGGGGTGT | 1.059 ± 0.0039 |
| GACGGGTGAG | 0.9917 ± 0.0087 |
| GACGGGTGGC | 1.11 ± 0.02 |
| GACGGGTTTC | 0.991 ± 0.017 |
| GACGTAAAAG | 1.097 ± 0.0096 |
| GACGTAAATA | 1.75 ± 0.18 |
| GACGTAACGG | 1.082 ± 0.0014 |
| GACGTAAGTT | 1.02 ± 0.018 |
| GACGTGGAAG | 1.01 ± 0.024 |
| GACGTGTGTC | 0.983 ± 0.023 |
| GACGTTATTG | 1.03 ± 0.013 |
| GACGTTCATA | 1.083 ± 0.0089 |
| GACGTTGAGG | 0.983 ± 0.023 |

| Sequence | switch fluorescence ratio |
| --- | --- |
| GACGTTGCTA | 1.06 ± 0.019 |
| GACGTTTCAG | 0.95 ± 0.02 |
| GACGTTTGGG | 0.982 ± 0.022 |
| GACGTTTTAG | 0.993 ± 0.052 |
| GACGTTTTTA | 1.01 ± 0.046 |
| GACTAAGTTT | 1.018 ± 0.0076 |
| GACTAATGAT | 1.02 ± 0.024 |
| GACTAATTGG | 0.957 ± 0.013 |
| GACTACATTA | 1.03 ± 0.025 |
| GACTACGGCC | 1.049 ± 0.0065 |
| GACTAGGCGG | 1.12 ± 0.2 |
| GACTAGTATA | 1.01 ± 0.04 |
| GACTATTAGC | 0.984 ± 0.028 |
| GACTCAGAGG | 1.03 ± 0.011 |
| GACTCCTGAG | 0.98 ± 0.033 |
| GACTGACTGG | 0.996 ± 0.018 |
| GACTGGAGGA | 0.9851 ± 0.008 |
| GACTGGGGCA | 1.017 ± 0.0053 |
| GACTGGTTGC | 1 ± 0.053 |
| GACTGTCGGC | 1.02 ± 0.024 |
| GACTGTTAGG | 1.03 ± 0.016 |
| GACTTAGGAC | 1.02 ± 0.021 |
| GACTTAGGTA | 0.975 ± 0.027 |
| GACTTATCCT | 1.054 ± 0.004 |
| GACTTCCAGG | 1.05 ± 0.026 |

| Sequence | switch fluorescence ratio |
| --- | --- |
| GACTTCTTAG | 0.9573 ± 0.0041 |
| GACTTTAAGC | 1.01 ± 0.032 |
| GACTTTACTG | 1.06 ± 0.049 |
| GACTTTTAGG | 1.01 ± 0.027 |
| GACTTTTATA | 0.996 ± 0.026 |
| GAGAAAACCG | 1.06 ± 0.092 |
| GAGAAAATTT | 0.989 ± 0.043 |
| GAGAAAGGGG | 1.06 ± 0.14 |
| GAGAAAGGTG | 1.09 ± 0.022 |
| GAGAAAGTGG | 0.9924 ± 0.001 |
| GAGAAATTGG | 1 ± 0.022 |
| GAGAAGGGAG | 0.9895 ± 0.0055 |
| GAGAATCGGT | 1.03 ± 0.078 |
| GAGAATGGCA | 0.964 ± 0.028 |
| GAGAATTGGG | 1.02 ± 0.061 |
| GAGACAGTTA | 0.992 ± 0.014 |
| GAGACCCGTG | 0.9867 ± 0.0059 |
| GAGACGTTTG | 1.02 ± 0.054 |
| GAGACTAGGT | 1.04 ± 0.025 |
| GAGACTGGTT | 1.03 ± 0.034 |
| GAGAGAAAAT | 1.49 ± 0.63 |
| GAGAGAGGTG | 1.0377 ± 0.00093 |
| GAGAGATAGT | 1.03 ± 0.015 |
| GAGAGGGTAT | 0.966 ± 0.012 |
| GAGAGGGTTG | 0.971 ± 0.033 |

| Sequence | switch fluorescence ratio |
| --- | --- |
| GAGAGTATGT | 0.998 ± 0.043 |
| GAGAGTCCTT | 0.997 ± 0.015 |
| GAGAGTCTAG | 0.989 ± 0.015 |
| GAGAGTTTTC | 0.985 ± 0.037 |
| GAGATACTCT | 1.03 ± 0.012 |
| GAGATAGTAG | 1 ± 0.015 |
| GAGATCATTG | 1.07 ± 0.057 |
| GAGATGGCAT | 0.987 ± 0.04 |
| GAGATGGGGA | 0.991 ± 0.022 |
| GAGATGGGTA | 0.997 ± 0.027 |
| GAGATTAGGT | 0.977 ± 0.015 |
| GAGATTGCGG | 0.9849 ± 0.0012 |
| GAGATTTGAC | 1.01 ± 0.025 |
| GAGCAATATA | 5.13 ± 1.7 |
| GAGCAATGTG | 1.22 ± 0.3 |
| GAGCAGTGCA | 1.03 ± 0.037 |
| GAGCATTCCG | 1.003 ± 0.0051 |
| GAGCCGGAGC | 0.993 ± 0.012 |
| GAGCGACCTG | 0.989 ± 0.016 |
| GAGCGAGGAA | 0.98171 ± 0.00093 |
| GAGCGAGGGA | 1.14 ± 0.052 |
| GAGCGCGAGG | 0.99 ± 0.037 |
| GAGCGTAACG | 0.9999 ± 0.0027 |
| GAGCGTGGGA | 1.11 ± 0.081 |
| GAGCTACTGA | 1.011 ± 0.0085 |
